Biological target: BACE2 (aspartic protease, recombinant, wild-type) (Homo sapiens (assumed; ), UniProt Q9Y5Z0)
Assay: crystal structure

Chain of BACE2 (aspartic protease, recombinant, wild-type) (Q9Y5Z0 21-518): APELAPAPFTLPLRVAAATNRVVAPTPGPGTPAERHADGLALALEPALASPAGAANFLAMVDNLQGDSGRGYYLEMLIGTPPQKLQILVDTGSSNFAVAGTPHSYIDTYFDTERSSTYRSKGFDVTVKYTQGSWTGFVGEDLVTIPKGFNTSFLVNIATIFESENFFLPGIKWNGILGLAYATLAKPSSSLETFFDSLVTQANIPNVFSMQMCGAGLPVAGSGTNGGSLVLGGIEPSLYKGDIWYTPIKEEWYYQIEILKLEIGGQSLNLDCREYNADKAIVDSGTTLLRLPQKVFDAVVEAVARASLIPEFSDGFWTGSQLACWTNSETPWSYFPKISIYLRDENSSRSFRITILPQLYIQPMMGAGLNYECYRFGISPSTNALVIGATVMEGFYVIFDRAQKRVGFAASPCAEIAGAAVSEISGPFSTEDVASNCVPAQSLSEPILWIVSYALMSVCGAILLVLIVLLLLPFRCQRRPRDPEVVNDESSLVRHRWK

B1: Nanobody XA4815 (VHH)
VHH: QVQLQESGGGLVQAGGSLRLSCAASGFTFSRAAMRWVRRAPERGLEWVANINAGDGSASYADFVKGRFTASRDKAGNRLYLQMDNLRPNDTAVYYCIYNGHRGQGTQVTVSS
- binding result: binds
